21 molecules from patent US20210388087A1 (Chugai, published 2021) can be followed below.

Changes are numbered by the printed parent chain. Names and notes keep the numbering of the source.

Sequences and labels used below:
B1: CE115HA000 L78I one-arm antibody (antibody, human IgG1, kappa, L234A L235A, N297A, name in Kabat numbering)
heavy: QVQLVESGGGVVQPGRSLRLSCAASGFTFSNAWMHWVRQAPGKGLEWVAQIKAKSNNYATYYAESVKGRFTISRDDSKNSIYLQMNSLKTEDTAVYYCRYVHYGAYYGVDAWGQGTTVTVSSASTKGPSVFPLAPSSKSTSGGTAALGCLVKDYFPEPVTVSWNSGALTSGVHTFPAVLQSSGLYSLSSVVTVPSSSLGTQTYICNVNHKPSNTKVDKKVEPKSCDKTHTCPPCPAPEAAGGPSVFLFPPKPKDTLMISRTPEVTCVVVDVSHEDPEVKFNWYVDGVEVHNAKTKPREEQYASTYRVVSVLTVLHQDWLNGKEYKCKVSNKALPAPIEKTISKAKGQPREPQVYTLPPSRCELTKNQVSLSCAVKGFYPSDIAVEWESNGQPENNYKTTPPVLDSDGSFFLVSKLTVDKSRWQQGNVFSCSVMHEALHNHYTQKSLSLSPDYKDDDDK
chain: EPKSSDKTHTCPPCPAPELLGGPSVFLFPPKPKDTLMISRTPEVTCVVVDVSHEDPEVKFNWYVDGVEVHNAKTKPREEQYNSTYRVVSVLTVLHQDWLNGKEYKCKVSNKALPAPIEKTISKAKGQPREPQVCTLPPSRDELTKNQVSLWCLVKGFYPSDIAVEWESNGQPENNYKTTPPVLDSDGSFFLYSKLTVDKSRWQQGNVFSCSVMHEALHNRYTQKSLSLSP
light: DIVMTQSPLSLPVTPGEPASISCRSSQSLVHSNRNTYLHWYQQKPGQAPRLLIYKVSNRFSGVPDRFSGSGSGTDFTLKISRVEAEDVGVYYCGQGTQVPYTFGQGTKLEIKRTVAAPSVFIFPPSDEQLKSGTASVVCLLNNFYPREAKVQWKVDNALQSGNSQESVTEQDSKDSTYSLSSTLTLSKADYEKHKVYACEVTHQGLSSPVTKSFNRGEC
B2: CE115HA000 N53G one-arm antibody (antibody, human IgG1, kappa, L234A L235A, N297A, name in Kabat numbering)
heavy: B1 heavy with N56G, I81L
chain: B1 chain
light: B1 light
B3: CE115HA000 N31I one-arm antibody (antibody, human IgG1, kappa, L234A L235A, N297A, name in Kabat numbering)
heavy: B1 heavy with N31I, I81L
chain: B1 chain
light: B1 light
B4: CE115HA000 N53D one-arm antibody (antibody, human IgG1, kappa, L234A L235A, N297A, name in Kabat numbering)
heavy: B1 heavy with N56D, I81L
chain: B1 chain
light: B1 light
B5: CE115HA000 N31H one-arm antibody (antibody, human IgG1, kappa, L234A L235A, N297A, name in Kabat numbering)
heavy: B1 heavy with N31H, I81L
chain: B1 chain
light: B1 light
B6: CE115HA000 N31S one-arm antibody (antibody, human IgG1, kappa, L234A L235A, N297A, name in Kabat numbering)
heavy: B1 heavy with N31S, I81L
chain: B1 chain
light: B1 light
B7: CE115HA000 N31Q one-arm antibody (antibody, human IgG1, kappa, L234A L235A, N297A, name in Kabat numbering)
heavy: B1 heavy with N31Q, I81L
chain: B1 chain
light: B1 light
B8: CE115HA000 N53A one-arm antibody (antibody, human IgG1, kappa, L234A L235A, N297A, name in Kabat numbering)
heavy: B1 heavy with N56A, I81L
chain: B1 chain
light: B1 light
B9: CE115HA000 N31A one-arm antibody (antibody, human IgG1, kappa, L234A L235A, N297A, name in Kabat numbering)
heavy: B1 heavy with N31A, I81L
chain: B1 chain
light: B1 light
notes: one-arm antibody: altered VH on pE22Hh, Fc-only chain Kn010G3, GLS3000 on kappa; the same build holds for m3 to m260
B10: CE115HA000 N53I one-arm antibody (antibody, human IgG1, kappa, L234A L235A, N297A, name in Kabat numbering)
heavy: B1 heavy with N56I, I81L
chain: B1 chain
light: B1 light
B11: CE115HA000 N31W one-arm antibody (antibody, human IgG1, kappa, L234A L235A, N297A, name in Kabat numbering)
heavy: B1 heavy with N31W, I81L
chain: B1 chain
light: B1 light
B12: CE115HA000 N53K one-arm antibody (antibody, human IgG1, kappa, L234A L235A, N297A, name in Kabat numbering)
heavy: B1 heavy with N56K, I81L
chain: B1 chain
light: B1 light
B13: CE115HA000 N53Q one-arm antibody (antibody, human IgG1, kappa, L234A L235A, N297A, name in Kabat numbering)
heavy: B1 heavy with N56Q, I81L
chain: B1 chain
light: B1 light
B14: CE115HA000 N53S one-arm antibody (antibody, human IgG1, kappa, L234A L235A, N297A, name in Kabat numbering)
heavy: B1 heavy with N56S, I81L
chain: B1 chain
light: B1 light
B15: CE115HA000 N31G one-arm antibody (antibody, human IgG1, kappa, L234A L235A, N297A, name in Kabat numbering)
heavy: B1 heavy with N31G, I81L
chain: B1 chain
light: B1 light
B16: CE115HA000 N31R one-arm antibody (antibody, human IgG1, kappa, L234A L235A, N297A, name in Kabat numbering)
heavy: B1 heavy with N31R, I81L
chain: B1 chain
light: B1 light
B17: CE115HA000 N53H one-arm antibody (antibody, human IgG1, kappa, L234A L235A, N297A, name in Kabat numbering)
heavy: B1 heavy with N56H, I81L
chain: B1 chain
light: B1 light
B18: CE115HA000 N31F one-arm antibody (antibody, human IgG1, kappa, L234A L235A, N297A, name in Kabat numbering)
heavy: B1 heavy with N31F, I81L
chain: B1 chain
light: B1 light
B19: CE115HA000 N31Y one-arm antibody (antibody, human IgG1, kappa, L234A L235A, N297A, name in Kabat numbering)
heavy: B1 heavy with N31Y, I81L
chain: B1 chain
light: B1 light
B20: CE115HA000 N31D one-arm antibody (antibody, human IgG1, kappa, L234A L235A, N297A, name in Kabat numbering)
heavy: B1 heavy with N31D, I81L
chain: B1 chain
light: B1 light
B21: CE115HA000 N31K one-arm antibody (antibody, human IgG1, kappa, L234A L235A, N297A, name in Kabat numbering)
heavy: B1 heavy with N31K, I81L
chain: B1 chain
light: B1 light

The target in the experiment is T1, CD3 epsilon homodimer protein (UniProt P07766 23-126).
T1 construct: immobilized on Sensor chip CM4 by amine coupling; also called CD3 (CD3 epsilon)
T1 sequence (P07766 23-126): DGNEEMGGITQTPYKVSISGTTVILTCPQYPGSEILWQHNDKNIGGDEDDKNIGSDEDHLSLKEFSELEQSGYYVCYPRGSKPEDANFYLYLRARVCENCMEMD
The experiment can be described thus: SPR (Biacore T200), CD3 epsilon homodimer on CM4 chip, one-arm antibody as analyte, 25 C.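 Note: homodimer attached to the sensor surface via amine coupling, HBS-EP+ used as running buffer during binding runs.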
B1: the “ratio of amounts bound (altered form / CE115HA000)” value is 1.34.
Under B2 stands 0.5.
As to B3, the “ratio of amounts bound (altered form / CE115HA000)” value was 0.81.
Regarding B4, the “ratio of amounts bound (altered form / CE115HA000)” value came to 0.39.
For the molecule B5, the “ratio of amounts bound (altered form / CE115HA000)” value is 0.68.
Consider B6, for which the “ratio of amounts bound (altered form / CE115HA000)” value was 0.81.
Turning to B7, the “ratio of amounts bound (altered form / CE115HA000)” value was 0.49.
Under B8 stands 0.7; under B9, 0.5.
With B10, the “ratio of amounts bound (altered form / CE115HA000)” value was 0.68.
As for B11, the “ratio of amounts bound (altered form / CE115HA000)” value came to 0.63.
As for B12, the figure is 0.78.
Turning to B13, the “ratio of amounts bound (altered form / CE115HA000)” value stood at 1.1.
For B14, the “ratio of amounts bound (altered form / CE115HA000)” value is 0.83.
Under B15 stands 0.39; under B16, 1.14.
Consider B17, for which the “ratio of amounts bound (altered form / CE115HA000)” value was found to be 0.76.
For the molecule B18, the “ratio of amounts bound (altered form / CE115HA000)” value worked out at 0.62.
B19: the “ratio of amounts bound (altered form / CE115HA000)” value is 0.64.
With B20, the “ratio of amounts bound (altered form / CE115HA000)” value came to 0.37.
As for B21, the figure is 1.01.
